This note sets out measurements from patent publication US20020086983.

The target in data set [1] is FLAME-1 (in vitro translated, 35S-labeled).
In data set [2] the target is FLAME-1-D341A (in vitro translated, 35S-labeled).

B1: caspase-10 (Mch4), purified recombinant (protein)
chain: VKTFLEALPRAAVYRMNRNHRGLCVIVNNHSFTSLKDRQGTHKDAEILSHVFQWLGFTVHIHNNVTKVEMEMVLQKQKCNPAHADGDCFVFCILTHGRFGAVYSSDEALIPIREIMSHFTALQCPRLAEKPKLFFIQACQGEEIQPSVSIEADALNPEQAPTSLQDSIPAEADFLLGLATVPGYVSFRHVEEGSWYIQSLCNHLKKLVPRHEDILSILTAVNDDVSRRVDKQGTKKQMPQPAFTLRKKLVFPVPLDALSL
As to B1, in data set [1], the “cleavage of 35S-labeled FLAME-1 into p39 and p12 (SDS-PAGE, autoradiography)” value is “in vitro translated FLAME-1 can be cleaved by several caspases including CPP32, Mch2, Mch3, Mch4, MchS and ICH-1 to generate two fragments (p39 and pl2)”. The “cleavage of 35S-labeled FLAME-1-D341A (SDS-PAGE, autoradiography)” value (“cleavage of 35S-labeled FLAME-1-D341A” for short) in data set [2] is “a D to A mutation in this site prevents these caspases from cleaving FLAME-1”.

B2: caspase-3 (CPP32), purified recombinant (protein)
chain: SGISLDNSYKMDYPEMGLCIIINNKNFHKSTGMTSRSGTDVDAANLRETFRNLKYEVRNKNDLTREEIVELMRDVSKEDHSKRSSFVCVLLSHGEEGIIFGTNGPVDLKKITNFFRGDRCRSLTGKPKLFIIQACRGTELDCGIETDSGVDDDMACHKIPVEADFLYAYSTAPGYYSWRNSKDGSWFIQSLCAMLKQYADKLEFMHILTRVNRKVATEFESFSFDATFHAKKQIPCIVSMLTKELYFYH
For the protein B2, the “cleavage of 35S-labeled FLAME-1 into p39 and p12 (SDS-PAGE, autoradiography)” value in data set [1] is “in vitro translated FLAME-1 can be cleaved by several caspases including CPP32, Mch2, Mch3, Mch4, MchS and ICH-1 to generate two fragments (p39 and pl2)”.

B3: caspase-2 (ICH-1), purified recombinant (protein)
chain: GPVCLQVKPCTPEFYQTHFQLAYRLQSRPRGLALVLSNVHFTGEKELEFRSGGDVDHSTLVTLFKLLGYDVHVLCDQTAQEMQEKLQNFAQLPAHRVTDSCIVALLSHGVEGAIYGVDGKLLQLQEVFQLFDNANCPSLQNKPKMFFIQACRGDETDRGVDQQDGKNHAGSPGCEESDAGKEKLPKMRLPTRSDMICGYACLKGTAAMRNTKRGSWYIEALAQVFSERACDMHVADMLVKVNALIKDREGYAPGTEFHRCKEMSEYCSTLCRHLYLFPGHPPT
Consider B3, for which the “cleavage of 35S-labeled FLAME-1 into p39 and p12 (SDS-PAGE, autoradiography)” value in data set [1] is “in vitro translated FLAME-1 can be cleaved by several caspases including CPP32, Mch2, Mch3, Mch4, MchS and ICH-1 to generate two fragments (p39 and pl2)”. Moreover, the “cleavage of 35S-labeled FLAME-1-D341A” value in data set [2] is “a D to A mutation in this site prevents these caspases from cleaving FLAME-1”.

B4: caspase-7 (Mch3), purified recombinant (protein)
chain: AKPDRSSFVPSLFSKKKKNVTMRSIKTTRDRVPTYQYNMNFEKLGKCIIINNKNFDKVTGMGVRNGTDKDAEALFKCFRSLGFDVIVYNDCSCAKMQDLLKKASEEDHTNAACFACILLSHGEENVIYGKDGVTPIKDLTAHFRGDRCKTLLEKPKLFFIQACRGTELDDGIQADSGPINDTDANPRYKIPVEADFLFAYSTVPGYYSWRSPGRGSWFVQALCSILEEHGKDLEIMQILTRVNDRVARHFESQSDDPHFHEKKQIPCVVSMLTKELYFSQ
As for B4, in data set [1], the “cleavage of 35S-labeled FLAME-1 into p39 and p12 (SDS-PAGE, autoradiography)” value was “in vitro translated FLAME-1 can be cleaved by several caspases including CPP32, Mch2, Mch3, Mch4, MchS and ICH-1 to generate two fragments (p39 and pl2)”.

B5: caspase-6 (Mch2), purified recombinant (protein)
chain: AFYKREMFDPAEKYKMDHRRRGIALIFNHERFFWHLTLPERRGTCADRDNLTRRFSDLGFEVKCFNDLKAEELLLKIHEVSTVSHADADCFVCVFLSHGEGNHIYAYDAKIEIQTLTGLFKGDKCHSLVGKPKIFIIQACRGNQHDVPVIPLDVVDNQTEKLDTNITEVDAASVYTLPAGADFLMCYSVAEGYYSHRETVNGSWYIQDLCEMLGKYGSSLEFTELLTLVNRKVSQRRVDFCKDPSAIGKKQVPCFASMLTKKLHFFPKSN
In the case of B5, the “cleavage of 35S-labeled FLAME-1 into p39 and p12 (SDS-PAGE, autoradiography)” value in data set [1] was “in vitro translated FLAME-1 can be cleaved by several caspases including CPP32, Mch2, Mch3, Mch4, MchS and ICH-1 to generate two fragments (p39 and pl2)”. The “cleavage of 35S-labeled FLAME-1-D341A” value in data set [2] was “a D to A mutation in this site prevents these caspases from cleaving FLAME-1”.

B6: caspase-8 (Mch5), purified recombinant (protein)
chain: SESQTLDKVYQMKSKPRGYCLIINNHNFAKAREKVPKLHSIRDRNGTHLDAGALTTTFEELHFEIKPHDDCTVEQIYEILKIYQLMDHSNMDCFICCILSHGDKGIIYGTDGQEAPIYELTSQFTGLKCPSLAGKPKVFFIQACQGDNYQKGIPVETDSEEQPYLEMDLSSPQTRYIPDEADFLLGMATVNNCVSYRNPAEGTWYIQSLCQSLRERCPRGDDILTILTEVNYEVSNKDDKKNMGKQMPQPTFTLRKKLVFPSD
For B6, the “cleavage of 35S-labeled FLAME-1 into p39 and p12 (SDS-PAGE, autoradiography)” value in data set [1] is “in vitro translated FLAME-1 can be cleaved by several caspases including CPP32, Mch2, Mch3, Mch4, MchS and ICH-1 to generate two fragments (p39 and pl2)”. For the same protein, the “cleavage of 35S-labeled FLAME-1-D341A” value in data set [2] is on record as “a D to A mutation in this site prevents these caspases from cleaving FLAME-1”.
